{"source": "the RNAGym collection of RNA variant scans (doi:10.7554/elife.80360)", "parents": {"B1": {"name": "Hammerhead Ribozyme (parent)", "chain": "ACCGGAUGUGCUUUCCGGUCUGAUGAGUCCGUGAGGACGAAACAG"}}}
{"variants_of": "B1", "assay": "self-cleavage, relative activity (ratio to wild type); higher = more cleavage; co-transcriptional"}
{"variant": "U9A G39U", "self-cleavage": 0.422}
{"variant": "U9A G39A", "self-cleavage": 0.307}
{"variant": "U9A G39C", "self-cleavage": 0.288}
{"variant": "U9C A37C", "self-cleavage": 1.03}
{"variant": "U9C A37U", "self-cleavage": 0.666}
{"variant": "U9C A37G", "self-cleavage": 1.61}
{"variant": "U9A C43A", "self-cleavage": 0.333}
{"variant": "U9A C43U", "self-cleavage": 0.337}
{"variant": "U9A C43G", "self-cleavage": 0.458}
{"variant": "U9A C15U", "self-cleavage": 0.848}
{"variant": "U9A C15A", "self-cleavage": 0.699}
{"variant": "U9A C15G", "self-cleavage": 0.758}
{"variant": "G8U U32A", "self-cleavage": 0.996}
{"variant": "G8U U32G", "self-cleavage": 0.859}
{"variant": "G8U U32C", "self-cleavage": 0.877}
{"variant": "U9A A26G", "self-cleavage": 0.368}
{"variant": "U9A A26U", "self-cleavage": 0.865}
{"variant": "U9A A26C", "self-cleavage": 0.532}
{"variant": "U9A G17U", "self-cleavage": 0.565}
{"variant": "U9A G17A", "self-cleavage": 0.539}
{"variant": "U9A G17C", "self-cleavage": 0.449}
{"variant": "U9C C15U", "self-cleavage": 0.863}
{"variant": "U9C C15G", "self-cleavage": 0.49}
{"variant": "U9C C15A", "self-cleavage": 0.956}
{"variant": "U9C C29U", "self-cleavage": 0.831}
{"variant": "U9C C29A", "self-cleavage": 0.77}
{"variant": "U9C C29G", "self-cleavage": 0.601}
{"variant": "U9A A44U", "self-cleavage": 0.557}
{"variant": "U9A A44G", "self-cleavage": 1.46}
{"variant": "U9A A44C", "self-cleavage": 0.523}
{"variant": "U9A U32A", "self-cleavage": 0.964}
{"variant": "U9A U32C", "self-cleavage": 0.953}
{"variant": "U9A U32G", "self-cleavage": 0.539}
{"variant": "U9C A26C", "self-cleavage": 0.554}
{"variant": "U9C A26U", "self-cleavage": 0.671}
{"variant": "U9C A26G", "self-cleavage": 0.379}
{"variant": "U9C A42U", "self-cleavage": 0.345}
{"variant": "U9C A42C", "self-cleavage": 0.351}
{"variant": "U9C A42G", "self-cleavage": 0.332}
{"variant": "U9A U14A", "self-cleavage": 1.07}
{"variant": "U9A U14C", "self-cleavage": 0.73}
{"variant": "U9A U14G", "self-cleavage": 1}
{"variant": "U9A C38U", "self-cleavage": 1.23}
{"variant": "U9A C38A", "self-cleavage": 0.755}
{"variant": "U9A C38G", "self-cleavage": 0.682}
{"variant": "U9A U21G", "self-cleavage": 0.58}
{"variant": "U9A U21A", "self-cleavage": 0.528}
{"variant": "U9A U21C", "self-cleavage": 0.649}
{"variant": "U9C", "self-cleavage": 1.02}
{"variant": "U9A", "self-cleavage": 1.02}
{"variant": "U9C A44C", "self-cleavage": 0.493}
{"variant": "U9C A44U", "self-cleavage": 0.661}
{"variant": "U9C A44G", "self-cleavage": 1.32}
{"variant": "U9A C20A", "self-cleavage": 0.438}
{"variant": "U9A C20G", "self-cleavage": 0.422}
{"variant": "U9A C20U", "self-cleavage": 0.557}
{"variant": "U9C C20U", "self-cleavage": 0.504}
{"variant": "U9C C20G", "self-cleavage": 0.437}
{"variant": "U9C C20A", "self-cleavage": 0.363}
{"variant": "U9A G45A", "self-cleavage": 0.707}
{"variant": "U9A G45U", "self-cleavage": 0.638}
{"variant": "U9A G45C", "self-cleavage": 0.609}
{"variant": "U9A A34C", "self-cleavage": 1.2}
{"variant": "U9A A34G", "self-cleavage": 0.751}
{"variant": "U9A A34U", "self-cleavage": 0.941}
{"variant": "U9A U13A", "self-cleavage": 1.62}
{"variant": "U9A U13C", "self-cleavage": 1.37}
{"variant": "U9A U13G", "self-cleavage": 1.1}
{"variant": "U9A G18C", "self-cleavage": 0.39}
{"variant": "U9A G18U", "self-cleavage": 0.546}
{"variant": "U9A G18A", "self-cleavage": 0.497}
{"variant": "U9A A37U", "self-cleavage": 0.593}
{"variant": "U9A A37G", "self-cleavage": 1}
{"variant": "U9A A37C", "self-cleavage": 1.02}
{"variant": "U9A G33U", "self-cleavage": 0.908}
{"variant": "U9A G33C", "self-cleavage": 0.808}
{"variant": "U9A G33A", "self-cleavage": 0.92}
{"variant": "U9A C30G", "self-cleavage": 0.774}
{"variant": "U9A C30U", "self-cleavage": 1.07}
{"variant": "U9A C30A", "self-cleavage": 1}
{"variant": "U9A G22A", "self-cleavage": 0.282}
{"variant": "U9A G22C", "self-cleavage": 0.359}
{"variant": "U9A G22U", "self-cleavage": 0.311}
{"variant": "U9A A23C", "self-cleavage": 0.46}
{"variant": "U9A A23U", "self-cleavage": 0.337}
{"variant": "U9A A23G", "self-cleavage": 0.324}
{"variant": "U9C A34U", "self-cleavage": 0.65}
{"variant": "U9C A34C", "self-cleavage": 0.94}
{"variant": "U9C A34G", "self-cleavage": 0.946}
{"variant": "U9A G27A", "self-cleavage": 0.841}
{"variant": "U9A G27C", "self-cleavage": 0.609}
{"variant": "U9A G27U", "self-cleavage": 0.585}
{"variant": "U9A C29U", "self-cleavage": 0.829}
{"variant": "U9A C29G", "self-cleavage": 0.602}
{"variant": "U9A C29A", "self-cleavage": 0.49}
{"variant": "U9C G17A", "self-cleavage": 0.754}
{"variant": "U9C C11U", "self-cleavage": 0.889}
{"variant": "U9C C11G", "self-cleavage": 0.944}
{"variant": "U9C C11A", "self-cleavage": 1.6}
{"variant": "U9A G31C", "self-cleavage": 1.18}
{"variant": "U9A G31U", "self-cleavage": 1.3}
{"variant": "U9A G31A", "self-cleavage": 0.825}
{"variant": "U9C A23G", "self-cleavage": 0.361}
{"variant": "U9C A23U", "self-cleavage": 0.358}
{"variant": "U9C A23C", "self-cleavage": 0.283}
{"variant": "G8U U28C", "self-cleavage": 1.23}
{"variant": "G8U U28G", "self-cleavage": 0.789}
{"variant": "U9A C16A", "self-cleavage": 1.15}
{"variant": "U9A C16G", "self-cleavage": 0.742}
{"variant": "U9A C16U", "self-cleavage": 1.11}
{"variant": "U9C C30U", "self-cleavage": 0.709}
{"variant": "U9C C30A", "self-cleavage": 0.902}
{"variant": "U9C C30G", "self-cleavage": 0.955}
{"variant": "U9C G10U", "self-cleavage": 0.795}
{"variant": "U9C G10C", "self-cleavage": 1.07}
{"variant": "U9C G10A", "self-cleavage": 1.19}
{"variant": "U9A G25U", "self-cleavage": 0.342}
{"variant": "U9A G25C", "self-cleavage": 0.311}
{"variant": "U9A G25A", "self-cleavage": 0.345}
{"variant": "U9A U12A", "self-cleavage": 1.23}
{"variant": "U9A U12G", "self-cleavage": 0.802}
{"variant": "U9A U12C", "self-cleavage": 0.947}
{"variant": "U9A G36U", "self-cleavage": 0.505}
{"variant": "U9A G36C", "self-cleavage": 0.573}
{"variant": "U9A G36A", "self-cleavage": 0.621}
{"variant": "U9C C38U", "self-cleavage": 1.1}
{"variant": "U9C C38G", "self-cleavage": 0.805}
{"variant": "U9C C38A", "self-cleavage": 0.618}
{"variant": "U9A A42U", "self-cleavage": 0.332}
{"variant": "U9A A42C", "self-cleavage": 0.32}
{"variant": "U9A A42G", "self-cleavage": 0.218}
{"variant": "U9A U28A", "self-cleavage": 0.803}
{"variant": "U9A U28C", "self-cleavage": 0.98}
{"variant": "U9A U28G", "self-cleavage": 0.823}
{"variant": "U9A G35C", "self-cleavage": 1.05}
{"variant": "U9A G35U", "self-cleavage": 0.435}
{"variant": "U9A G35A", "self-cleavage": 0.751}
{"variant": "U9A A41G", "self-cleavage": 0.357}
{"variant": "U9A A41C", "self-cleavage": 0.455}
{"variant": "U9A A41U", "self-cleavage": 0.37}
{"variant": "U9A U19A", "self-cleavage": 0.291}
{"variant": "U9A U19C", "self-cleavage": 0.535}
{"variant": "U9A U19G", "self-cleavage": 0.398}
{"variant": "U9A C11G", "self-cleavage": 1.57}
{"variant": "U9A C11A", "self-cleavage": 1.19}
{"variant": "U9A C11U", "self-cleavage": 0.572}
{"variant": "U9C A40C", "self-cleavage": 0.633}
{"variant": "U9C A40G", "self-cleavage": 0.374}
{"variant": "U9C A40U", "self-cleavage": 0.406}
{"variant": "U9C A41C", "self-cleavage": 0.407}
{"variant": "U9C A41G", "self-cleavage": 0.356}
{"variant": "U9C A41U", "self-cleavage": 0.34}
{"variant": "U9C C16A", "self-cleavage": 1.04}
{"variant": "U9C C16G", "self-cleavage": 0.626}
{"variant": "U9C C16U", "self-cleavage": 1.41}
{"variant": "U9A G10U", "self-cleavage": 1.07}
{"variant": "U9A G10C", "self-cleavage": 1}
{"variant": "U9A G10A", "self-cleavage": 1.38}
{"variant": "U9A U24G", "self-cleavage": 0.919}
{"variant": "U9A U24A", "self-cleavage": 1.2}
{"variant": "U9A U24C", "self-cleavage": 1.38}
{"variant": "U9C C43U", "self-cleavage": 0.38}
{"variant": "U9C C43A", "self-cleavage": 0.314}
{"variant": "U9C C43G", "self-cleavage": 0.274}
{"variant": "U9A A40C", "self-cleavage": 0.49}
{"variant": "U9A A40U", "self-cleavage": 0.367}
{"variant": "U9A A40G", "self-cleavage": 0.349}
